B1: Azurin, P00282 (parent)
chain: MLRKLAAVSLLSLLSAPLLAAECSVDIQGNDQMQFNTNAITVDKSCKQFTVNLSHPGNLPKNVMGHNWVLSTAADMQGVVTDGMASGLDKDYLKPDDSRVIAHTKLIGSGEKDSVTFDVSKLKEGEQYMFFCTFPGHSALMKGTLTLK

This data set covers variants of B1. The conditions noted are these: Pseudomonas aeruginosa (strain ATCC 15692 / DSM 22644 / CIP 104116 / JCM 14847 / LMG 12228 / 1C / PRS 101 / PAO1); pH 7; 25 °C; GdnHCl; Fluorescence, CD; Tris-HCl 100 mM; reversible: Yes; structure 5AZU; whole UniProt chain shown.

Regarding V80G, the “ddG of mutation (higher = less stable)” value came to 3.11 kcal/mol, the denaturant m value is 4.18 kcal/mol/M and the unfolding free energy was determined as 9.8 kcal/mol.

Regarding V115A, the “ddG of mutation (higher = less stable)” value was found to be 0.96 kcal/mol, the denaturant m value was determined as 4.3 kcal/mol/M and the unfolding free energy was 11.9 kcal/mol.

Consider Y128A, for which the “ddG of mutation (higher = less stable)” value was 3.59 kcal/mol, the denaturant m value stood at 4.42 kcal/mol/M and the unfolding free energy amounted to 9.32 kcal/mol.

Turning to L70A, the “ddG of mutation (higher = less stable)” value came to 1.79 kcal/mol, the denaturant m value stood at 4.42 kcal/mol/M and the unfolding free energy is 11.1 kcal/mol.

V51A: the “ddG of mutation (higher = less stable)” value came to 1.67 kcal/mol, the denaturant m value came to 4.54 kcal/mol/M and the unfolding free energy was 11.2 kcal/mol.

For the variant V25A, the “ddG of mutation (higher = less stable)” value was 0.96 kcal/mol, the denaturant m value came out at 4.06 kcal/mol/M and the unfolding free energy was 11.9 kcal/mol.

Take L53A: the “ddG of mutation (higher = less stable)” value worked out at 1.67 kcal/mol, the denaturant m value was determined as 4.78 kcal/mol/M and the unfolding free energy was 11.2 kcal/mol.

V42A: the “ddG of mutation (higher = less stable)” value was 1.67 kcal/mol, the denaturant m value is 4.54 kcal/mol/M and the unfolding free energy was 11.2 kcal/mol.

As to I40A, the “ddG of mutation (higher = less stable)” value was determined as 2.39 kcal/mol, the denaturant m value was 4.54 kcal/mol/M and the unfolding free energy is 10.5 kcal/mol.

As to I27A, the “ddG of mutation (higher = less stable)” value was found to be 3.35 kcal/mol, the denaturant m value came out at 4.3 kcal/mol/M and the unfolding free energy came out at 9.56 kcal/mol.

For the variant I101A, the “ddG of mutation (higher = less stable)” value was 1.43 kcal/mol, the denaturant m value stood at 4.78 kcal/mol/M and the unfolding free energy came out at 11.5 kcal/mol.

On to L145A, for which the “ddG of mutation (higher = less stable)” value turned out to be 1.67 kcal/mol, the denaturant m value turned out to be 4.54 kcal/mol/M and the unfolding free energy turned out to be 11.2 kcal/mol.

For M141A, the “ddG of mutation (higher = less stable)” value was found to be 2.87 kcal/mol, the denaturant m value came out at 4.18 kcal/mol/M and the unfolding free energy was found to be 10 kcal/mol.

As to W68A, the “ddG of mutation (higher = less stable)” value was 3.35 kcal/mol, the denaturant m value was 4.78 kcal/mol/M and the unfolding free energy was 9.56 kcal/mol.

As to A102G, the “ddG of mutation (higher = less stable)” value was 1.67 kcal/mol, the denaturant m value is 4.3 kcal/mol/M and the unfolding free energy worked out at 11.2 kcal/mol.

For the origin of these results see FireProtDB (doi:10.1021/bi050342n).
